Reference: patent publication US20230381334A1
Non-standard residues stand in square brackets, D forms with d. No end group written: not given here.

Target: mouse anti V5 antibody (Thermo Scientific)
Test: ELISA: 1 ug/ml mouse anti V5 with increasing SADC, complexes captured on streptavidin via biotinylated SADC peptide, bound IgG detected with anti mouse IgG-HRP

Row | EC50 | Binder
1 | 0.0555 µg/mL | IPNPLLGLDGGSGDYKDDDDKGK[BiotinAca]GC (peptide, part only; not given: haptoglobin scaffold, part only, also: bound to haptoglobin scaffold, attachment site not given here) [SADC with haptoglobin scaffold carrying tagged V5 peptide …-(BiotinAca)GC]
2 | 0.007 µg/mL | IPNPLLGLDGGSGDYKDDDDKGK[BiotinAca]GC (peptide, part only; not given: transferrin scaffold, part only, also: bound to transferrin scaffold, attachment site not given here) [SADC with transferrin scaffold carrying tagged V5 peptide …-(BiotinAca)GC]
3 | 0.0279 µg/mL | IPNPLLGLDGGSGDYKDDDDKGK[BiotinAca]GC (peptide, part only; not given: albumin scaffold, part only, also: bound to albumin scaffold, attachment site not given here) [SADC with albumin scaffold carrying tagged V5 peptide …-(BiotinAca)GC]
